# PMC4448125 (Nature communications, 2015)
# B1: His-SMT3-tagged MID(432 ~ 575aa) of human Ago2 (domain or fragment)
# chain: not shown
# Target: GST-tagged human eIF1AX (known as eIF1A), full length (human, UniProt P47813 1-144)
# Assay: pull-down
# Sequence of GST-tagged human eIF1AX (known as eIF1A), full length (P47813 whole entry): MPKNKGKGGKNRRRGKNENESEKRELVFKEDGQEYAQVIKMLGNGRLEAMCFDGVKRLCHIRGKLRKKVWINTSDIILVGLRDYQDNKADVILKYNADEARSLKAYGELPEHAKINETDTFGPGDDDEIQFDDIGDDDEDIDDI
binder,measurement,value
B1,binding result,binds
